PMC6083090, “CNBP Homologues Gis2 and Znf9 Interact with a Putative G-Quadruplex-Forming 3′ Untranslated Region, Altering Polysome Association and Stress Tolerance in Cryptococcus neoformans”

T1: rZnf9 (Cryptococcus neoformans (H99), UniProt J9VQH8 1-184)
T1 sequence: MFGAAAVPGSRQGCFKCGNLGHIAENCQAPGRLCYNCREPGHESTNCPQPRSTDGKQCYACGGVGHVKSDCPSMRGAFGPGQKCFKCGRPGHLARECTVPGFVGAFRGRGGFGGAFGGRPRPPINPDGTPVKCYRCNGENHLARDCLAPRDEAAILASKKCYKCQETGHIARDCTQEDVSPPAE

T2: rGis2 (Cryptococcus neoformans (H99), UniProt J9VQ17 1-201)
T2 sequence: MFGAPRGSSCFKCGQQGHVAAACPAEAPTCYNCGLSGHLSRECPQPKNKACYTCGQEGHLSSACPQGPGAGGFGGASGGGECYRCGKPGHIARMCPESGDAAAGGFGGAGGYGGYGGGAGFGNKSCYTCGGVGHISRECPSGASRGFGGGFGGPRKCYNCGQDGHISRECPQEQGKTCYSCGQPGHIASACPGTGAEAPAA

B1: mt competitor (cons mt) (ssRNA)
RNA: UGCAGUGGAGUUGGAGUGAAACCAAACCGUUGGGCAGUGGGCCCGUGGAU
B2: TYE705-RPL2-3'UTR (structured_RNA)
RNA: UGCAGUGGAGUUGGAGUGGGGAUGGGAUGUUGGGCAGUGGGCCCGUGGAU

Experiments:
rZnf9 [1] = target: T1, rZnf9; test: competition; 25x and 50x competitor, UV-cross-linked EMSA; EMSA: 15 mM HEPES pH 7.4, 40 mM KCl, 5 mM MgCl2, 5% glycerol, 0.5 pmol probe in 20 µl, room temperature 20 min, then UV cross-link on ice 10 min; conditions: protein: recombinant; tags: His (pET14b, Ni-NTA); label: none; no G4
rGis2 [2] = target: T2, rGis2; test: as above; conditions: protein: recombinant; tags: His (pET14b, Ni-NTA); label: none; no G4
rZnf9 [3] = target: T1, rZnf9; test: UV-cross-linked EMSA; 5 mM Mg2+; EMSA: 15 mM HEPES pH 7.4, 40 mM KCl, 5 mM MgCl2, 5% glycerol, 0.5 pmol probe in 20 µl, room temperature 20 min, then UV cross-link on ice 10 min; conditions: protein: recombinant; tags: His (pET14b, Ni-NTA); label: 5'-TYE705; putative intramolecular G4
rGis2 [4] = target: T2, rGis2; test: as above; conditions: protein: recombinant; tags: His (pET14b, Ni-NTA); label: 5'-TYE705; putative intramolecular G4

Binder | binding result (rZnf9 [1]) | binding result (rGis2 [2]) | binding result (rZnf9 [3]) | binding result (rGis2 [4])
B1 | no binding | no binding | – | –
B2 | – | – | binds | binds
